In patent US11952373B2, “Method of treating hypercytokinemia by administering the CCR5/CCL5 (RANTES) interaction inhibitor maraviroc” (priority 2020, dated 2024):
Entries after “also recorded” stand apart in the source; their conditions may differ.

Key:
[1] = system: CCL5/RANTES; assay: Plasma cytokine/chemokine panel in critical COVID-19 patients, CCL5/RANTES; type: in vivo, human
Text: (§1) To determine the extent and phenotype of “cytokine storm” cytokines and chemokines in critical COVID-19, a panel of 38 cytokines/chemokines was quantified in plasma from the ten critical COVID-19 patients at Day 0, Day 3 and Day 7 post-leronlimab therapy.

[2] = system: critically ill patients with COVID-19; assay: Clinical outcome of critically ill COVID-19 patients given leronlimab; type: in vivo, human; conditions: by Day 14, 10 critically ill COVID-19 patients
[3] = target: CCR5 (Homo sapiens, UniProt P51681); conditions: day 7, all ten critical COVID-19 patients, 700 mg leronlimab
[4] = system: CD8 and CD4 T-cells (PD-1, LAG-3, cleaved caspase 3); assay: Immunophenotyping / high parameter flow cytometry of T-cells and exhaustion markers in critical COVID-19 patients; type: in vivo, human; conditions: for exhaustion markers (PD-1, LAG-3, cleaved caspase 3) on CD8 and CD4 T-cells: after 700 mg leronlimab, all ten patients
[5] = system: IL-6; assay: Plasma cytokine/chemokine panel in critical COVID-19 patients, IL-6; type: in vivo, human; conditions: Day 7 post-leronlimab vs Day 0, critical COVID-19 patients
Text: as §1

CCR5, sequence (P51681 whole entry): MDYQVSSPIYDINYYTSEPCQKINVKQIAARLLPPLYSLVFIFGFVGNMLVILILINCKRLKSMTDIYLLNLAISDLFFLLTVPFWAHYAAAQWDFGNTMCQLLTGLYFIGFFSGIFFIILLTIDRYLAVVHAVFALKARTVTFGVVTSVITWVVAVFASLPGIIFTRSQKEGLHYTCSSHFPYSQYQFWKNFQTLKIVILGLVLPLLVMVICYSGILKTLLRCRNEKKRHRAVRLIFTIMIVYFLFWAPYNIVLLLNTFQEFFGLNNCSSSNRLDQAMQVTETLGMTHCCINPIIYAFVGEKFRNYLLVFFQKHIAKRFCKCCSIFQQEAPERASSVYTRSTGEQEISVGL

B1: leronlimab: a humanized monoclonal antibody directed against CCR5 (antibody, chains of the INN, looked up, V domains shown)
VH: EVQLVESGGGLVKPGGSLRLSCAASGYTFSNYWIGWVRQAPGKGLEWIGDIYPGGNYIRNNEKFKDKTTLSADTSKNTAYLQMNSLKTEDTAVYYCGSSFGSNYVFAWFTYWGQGTLVTVSS
VL: DIVMTQSPLSLPVTPGEPASISCRSSQRLLSSYGHTYLHWYLQKPGQSPQLLIYEVSNRFSGVPDRFSGSGSGTDFTLKISRVEAEDVGVYYCSQSTHVPLTFGQGTKVEIK
[1]; Day 7 post-leronlimab, critical COVID-19 patients
  plasma CCL5/RANTES level change: remained high; also recorded: did not drop as abruptly
[1]; Day 14, patients where data was available
  plasma CCL5/RANTES level change: initiation of a drop
[2]
  patients extubated and released: 4
  patients surviving: six out of 10
[3]
  blockade of CCR5 as determined by receptor occupancy: ~100%
[4]
  exhaustion markers (PD-1, LAG-3, cleaved caspase 3) on CD8 and CD4 T-cells: improvement in exhaustion markers
[4]; listed as Leronlimab
  exhaustion markers (PD-1, LAG-3, cleaved caspase 3) on CD8 and CD4 T-cells: improvements in exhaustion markers
[4]; all patients
  immune restoration including T-cell numbers: immune restoration
[4]; as little as 3 days post-therapy
  T-cell level and CD4/CD8 ratio: begins to restore T-cell level and correct the gross alteration of CD4/CD8 ratio
[4]; by Day 7 after 700 mg leronlimab
  immune profile compared to normal control blood: resembled the normal control blood
[4]; following 7 days of leronlimab, compared to Day 0
  expression of PD-1 and LAG3 on T-cells: significantly decreases
[5]
  plasma IL-6 level change: reduces IL-6; also recorded: significantly decreased; also recorded: dropped dramatically
